Assays:
Assay in all cases: Crosslinking/co-immunoprecipitation/mass spectrometry (TMT quantitative proteomics) to identify irisin receptors
Assay type in all cases: binding
[1] = biological target: T1, MLO-Y4 cell surface proteins (Mus musculus, UniProt O70404); conditions: co-precipitated protein Vamp8 (VAMP8_MOUSE)
T1 construct: endogenous in cells; host or cells: MLO-Y4
T1 sequence (O70404 1-101): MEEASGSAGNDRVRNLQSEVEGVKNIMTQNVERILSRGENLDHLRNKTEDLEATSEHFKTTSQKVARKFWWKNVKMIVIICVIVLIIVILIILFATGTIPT
Method in brief: (§1)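 Relative protein abundance came from 6-plex TMT MS3 quantitation on an Orbitrap Fusion Lumos, after in-gel trypsin digestion of Coomassie-stained SDS-PAGE lanes. Input was a Ni-NTA pulldown (250 mM imidazole elution) of lysates from murine MLO-Y4 cells. These cells were treated on ice with His-tagged irisin or adipsin (10 nM, 20 min) in serum-free medium, then crosslinked with 1.5 mM DTSSP for 30 min.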

[2] = biological target: T2, MLO-Y4 cell surface proteins (Mus musculus, UniProt Q9CXD6); conditions: co-precipitated protein Mcur1 (MCUR1_MOUSE)
T2 construct: endogenous in cells; host or cells: MLO-Y4
T2 sequence (Q9CXD6 1-340): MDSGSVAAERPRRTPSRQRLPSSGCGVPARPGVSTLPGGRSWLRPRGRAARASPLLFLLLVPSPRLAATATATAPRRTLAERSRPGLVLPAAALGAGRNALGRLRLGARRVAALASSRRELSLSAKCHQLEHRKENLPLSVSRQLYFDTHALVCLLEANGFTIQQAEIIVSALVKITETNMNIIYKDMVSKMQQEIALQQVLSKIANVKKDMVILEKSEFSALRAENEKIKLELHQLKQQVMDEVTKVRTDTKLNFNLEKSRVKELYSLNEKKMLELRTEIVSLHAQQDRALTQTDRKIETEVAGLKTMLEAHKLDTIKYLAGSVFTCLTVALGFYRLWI
Method in brief: as §1

[3] = biological target: T3, MLO-Y4 cell surface proteins (Mus musculus, UniProt P16675); conditions: co-precipitated protein Ctsa (PPGB_MOUSE)
T3 construct: endogenous in cells; host or cells: MLO-Y4
T3 sequence (P16675 24-474): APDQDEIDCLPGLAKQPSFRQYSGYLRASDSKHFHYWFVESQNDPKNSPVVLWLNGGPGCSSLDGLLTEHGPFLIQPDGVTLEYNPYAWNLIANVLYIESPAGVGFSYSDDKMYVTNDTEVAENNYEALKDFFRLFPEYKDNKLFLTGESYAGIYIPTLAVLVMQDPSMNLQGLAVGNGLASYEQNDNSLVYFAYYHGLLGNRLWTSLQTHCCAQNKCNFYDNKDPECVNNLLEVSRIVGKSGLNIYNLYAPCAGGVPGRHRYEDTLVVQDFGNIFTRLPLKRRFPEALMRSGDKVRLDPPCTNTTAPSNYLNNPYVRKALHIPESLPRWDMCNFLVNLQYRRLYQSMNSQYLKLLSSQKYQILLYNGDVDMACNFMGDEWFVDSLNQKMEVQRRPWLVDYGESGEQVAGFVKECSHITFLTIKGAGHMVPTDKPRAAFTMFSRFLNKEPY
Method in brief: as §1

adipsin
TMT signal-to-noise ratio [1]: 300.176
TMT signal-to-noise ratio [2]: 1631.69
TMT signal-to-noise ratio [3]: 357.95

From patent publication US20210063414A1, “METHODS FOR PREVENTING AND/OR TREATING BONE LOSS CONDITIONS BY MODULATING IRISIN” (Dana-Farber Cancer Institute, Inc., priority 2018, published 2021)
